Test results taken from patent US8008021B2, “N-terminal truncation of cardiac troponin subunits and their roles in cardiovascular disease” (Evanston Northwestern Healthcare, priority 2006, dated 2011).

B1: μ-calpain: calcium activated cysteine protease (Calbiochem) used to treat cTnT, troponin complex and myofibrils (protein, UniProt P07384 2-714, looked up)
Calpain-1 catalytic subunit: SEEIITPVYCTGVSAQVQKQRARELGLGRHENAIKYLGQDYEQLRVRCLQSGTLFRDEAFPPVPQSLGYKDLGPNSSKTYGIKWKRPTELLSNPQFIVDGATRTDICQGALGDCWLLAAIASLTLNDTLLHRVVPHGQSFQNGYAGIFHFQLWQFGEWVDVVVDDLLPIKDGKLVFVHSAEGNEFWSALLEKAYAKVNGSYEALSGGSTSEGFEDFTGGVTEWYELRKAPSDLYQIILKALERGSLLGCSIDISSVLDMEAITFKKLVKGHAYSVTGAKQVNYRGQVVSLIRMRNPWGEVEWTGAWSDSSSEWNNVDPYERDQLRVKMEDGEFWMSFRDFMREFTRLEICNLTPDALKSRTIRKWNTTLYEGTWRRGSTAGGCRNYPATFWVNPQFKIRLDETDDPDDYGDRESGCSFVLALMQKHRRRERRFGRDMETIGFAVYEVPPELVGQPAVHLKRDFFLANASRARSEQFINLREVSTRFRLPPGEYVVVPSTFEPNKEGDFVLRFFSEKSAGTVELDDQIQANLPDEQVLSEEEIDENFKALFRQLAGEDMEISVKELRTILNRIISKHKDLRTKGFSLESCRSMVNLMDRDGNGKLGLVEFNILWNRIRNYLSIFRKFDLDKSGSMSAYEMRMAIESAGFKLNKKLYELIITRYSEPDLAVDFDNFVCCLVRLETMFRFFKTLDTDLDGVVTFDLFKWLQLTMFA

Tests used:
bovine cardiac TnI = biological target: T1, bovine cardiac TnI (Bos taurus, UniProt P08057); assay: ELISA solid phase protein binding of immobilized cTnT to TnI; details: for EC50: immobilized mouse cTnT, mean ± SD, read-out: concentration of TnI required to reach 50% of maximum binding; for change in binding to TnI on decrease of pH: pH from 7.0 to 6.2
T1 construct: Bovine cardiac TnI was purified from ventricular muscle as described previously (19); from tissue; host or cells: bovine ventricular muscle
Protocol: (§1) Protein binding assays. Enzyme-linked immunosorbant assay (ELISA) solid phase protein binding experiments (21) were performed to investigate the interactions of the NH2-terminal truncated cTnT with TnI and tropomyosin. Purified intact and NH2-terminal truncated mouse cTnT or BSA control were dissolved at 5 μg/mL in Buffer A (0.1 M KCl, 3 mM MgCl2, 20 mM PIPES, pH 7.5) and coated onto 96-well microtiter plates by incubation at 4° C. overnight. After washes with Buffer T (Buffer A containing 0.05% polyoxyethylene 20 (TWEEN®20)) at pH 7.5 to remove the unbound protein, the plates were blocked with Buffer T at pH 7.0 or 6.2 containing 1% BSA. The immobilized cTnT was incubated with serial dilutions of bovine cardiac TnI or rabbit α-tropomyosin in Buffer T (at the blocking pH) containing 0.1% BSA at room temperature for 2 hours. After one wash with Buffer T of the blocking pH and two washes with Buffer T at pH 7.0, the bound TnI or tropomyosin was quantified via incubation at pH 7.0 and room temperature for 1 hour with the anti-TnI mAb TnI-1 (46) or an anti-tropomyosin mAb CH1 (47), respectively. The plates were then processed by a standard ELISA procedure, including pH 7.0 Buffer T washes, horse radish peroxidase-conjugated anti-mouse immunoglobulin second antibody (Sigma) incubation, and H2O2/2,2′-azinobis-(3-ethylbenzthiazolinesulfonic acid) substrate reaction (21). A405 nm of each assay well was recorded at a series of time points by an automated microtiter plate reader (BioRad Benchmark). The A405 nm values in the linear course of the color development were used to plot the protein binding affinity curves. All experiments were done in triplicate.

rabbit α-tropomyosin = biological target: T2, rabbit α-tropomyosin (Oryctolagus cuniculus, UniProt P58772); assay: ELISA solid phase protein binding of immobilized cTnT to tropomyosin; details: for EC50: immobilized mouse cTnT, mean ± SD, read-out: concentration of tropomyosin for 50% maximum binding; for change in binding to tropomyosin on decrease of pH: pH from 7.0 to 6.2
T2 construct: Rabbit α-tropomyosin was purified from ventricular muscle as described previously (44); from tissue; host or cells: rabbit ventricular muscle
Protocol: as §1

[1] = biological target: T3, myofibril associated μ-calpain (Mus musculus, UniProt O35350); assay: Calpain inhibition of cTnT-ND production in TRITON X-100 extracted ventricular muscle strips (Western blot densitometry); type: biochemical; details: 100 μM hydrogen peroxide
T3 construct: To test whether endogenous calpain in the cardiac muscle contributes to TnT NH2-terminal modification; from tissue
T3 sequence (O35350 1-713): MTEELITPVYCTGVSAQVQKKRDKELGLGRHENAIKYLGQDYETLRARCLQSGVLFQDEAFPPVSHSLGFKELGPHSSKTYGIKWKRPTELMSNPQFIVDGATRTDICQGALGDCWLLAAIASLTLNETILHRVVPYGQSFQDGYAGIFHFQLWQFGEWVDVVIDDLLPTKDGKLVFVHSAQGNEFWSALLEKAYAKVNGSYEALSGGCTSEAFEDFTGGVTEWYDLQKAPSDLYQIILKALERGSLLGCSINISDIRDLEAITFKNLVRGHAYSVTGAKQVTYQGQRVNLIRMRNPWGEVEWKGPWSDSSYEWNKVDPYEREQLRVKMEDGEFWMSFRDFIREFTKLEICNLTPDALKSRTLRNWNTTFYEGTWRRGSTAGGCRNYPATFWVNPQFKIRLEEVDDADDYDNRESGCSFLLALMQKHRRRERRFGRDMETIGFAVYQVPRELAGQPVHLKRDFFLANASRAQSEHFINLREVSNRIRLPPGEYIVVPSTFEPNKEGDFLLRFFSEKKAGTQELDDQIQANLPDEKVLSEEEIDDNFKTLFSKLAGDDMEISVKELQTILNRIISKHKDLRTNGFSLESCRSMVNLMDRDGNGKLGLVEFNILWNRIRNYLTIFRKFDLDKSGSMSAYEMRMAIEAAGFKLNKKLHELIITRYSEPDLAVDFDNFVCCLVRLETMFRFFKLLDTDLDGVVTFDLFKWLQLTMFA
T3 sequence (O88456 1-268 partner): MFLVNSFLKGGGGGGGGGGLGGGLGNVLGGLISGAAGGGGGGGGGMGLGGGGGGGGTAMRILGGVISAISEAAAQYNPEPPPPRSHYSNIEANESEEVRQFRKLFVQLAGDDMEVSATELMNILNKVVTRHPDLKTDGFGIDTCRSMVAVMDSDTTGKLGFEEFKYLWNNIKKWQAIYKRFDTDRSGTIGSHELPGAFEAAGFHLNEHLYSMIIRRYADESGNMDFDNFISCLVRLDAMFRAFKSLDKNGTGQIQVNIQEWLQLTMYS
Protocol: (§2) SDS-PAGE and Western blotting. Ventricular muscle tissues or myocytes were homogenized in Laemmli SDS-PAGE sample buffer containing 2% SDS, heated at 80° C. for 5 min, and clarified by centrifugation. Total protein extracts were resolved by 14% Laemmli gel with an acrylamide:bisacrylamide ratio of 180:1 (low cross linker) or by 15% Laemmli gel with an acrylamide:bisacrylamide ratio of 29:1 (high cross linker). The gels were stained with Coomassie Brilliant Blue R250 to reveal the resolved protein bands. Duplicate gels were electrically blotted to nitrocellulose membranes, as described previously (21). After blocking in Tris-buffered saline (TBS) containing 1% bovine serum albumin (BSA), the membrane was incubated with anti-TnT mAbs CT3, 2C8, or polyclonal antibody RATnT. The membranes were then washed with high stringency using TBS containing 0.5% TRITON® X-100 and 0.05% SDS, incubated with alkaline phosphatase-conjugated anti-mouse IgG or anti-rabbit IgG second antibodies (Sigma), washed again, and developed in 5-bromo-4-chloro-3-indolylphosphate/nitro blue tetrazolium substrate solution, as described previously (21).
TRITON® X-100 extraction of ventricular muscle strips. In an ice container, ventricular muscle was cut with a sharp razor blade into fine pieces approximately the size of isolated trabeculae. The muscle strips were washed in relaxing solution containing […], 2 mM MgCl2, 2 mM EGTA, 10 mM Tris, 0.5 mM DTT, 0.1 mM PMSF and 2 mM Na4P2O7. After centrifugation at 2,800×g at 4° C. for 15 min, the pellet was skinned in relaxing solution plus 0.5% (w/w) TRITON® X-100 at 4° C. with rotation for 10 min. After centrifugation at 14,000×g at 4° C. for 20 min, the pellet was suspended in relaxing solution without TRITON® X-100 and incubated at 37° C. with rotation. Samples were collected at a series of time points for SDS-PAGE and Western blotting to examine the modifications of cTnT and other myofibrillar proteins.
Calpain inhibition. To test whether endogenous calpain in the cardiac muscle contributes to TnT NH2-terminal modification, several different calpain inhibitors were applied to the TRITON® X-100 extraction procedure. […] TRITON® X-100 treatment of mouse ventricular muscle strips was carried out as above in the presence or absence of 100 μM hydrogen peroxide and the effect on cTnT modification was examined by Western blotting.
The effects of two cell membrane-permissible nonpeptide calpain inhibitors, PD 150606 and PD 151746 (Calbiochem), were also tested. […] PD 150606 and […] were separately added to the relaxing solution before TRITON® X-100 treatment and incubated with the minced ventricular muscle at 4° C. for 10 minutes to allow the inhibitor to penetrate cell membrane and bind to calpain. After TRITON® X-100 extraction, samples were collected for SDS-PAGE and Western blotting to examine the effect on cTnT modification.

[2] = system: cTnT in bovine cardiac myofibrils; assay: μ-Calpain treatment of cardiac myofibrils (mAb CT3 Western blot densitometry); type: biochemical; details: 20 U/ml μ-calpain
Protocol: as §2
Mu-Calpain treatment of cTnT. […] The samples were analyzed by SDS-PAGE and Western blotting as described above. […]

Molecule	EC50 (bovine cardiac TnI) [nM]	change in binding to TnI on decrease of pH (bovine cardiac TnI)	EC50 (rabbit α-tropomyosin) [nM]	change in binding to tropomyosin on decrease of pH (rabbit α-tropomyosin)	cTnT-ND production reduced to ([1]; TRITON X-100 extracted exon 7-deleted transgenic mouse ventricular muscle strips) [%]	decrease in cTnT-ND72-291 ([1]; TRITON X-100 treated mouse ventricular muscle strips)	maximum binding to TnI, compared with intact cTnT (bovine cardiac TnI; FIG. 12A insert)	level of maximum binding to tropomyosin, compared with intact cTnT (rabbit α-tropomyosin; FIG. 12B insert)	NH2-terminal truncated cTnT (cTnT ND) as share of total cTnT (truncated plus intact) ([2]; 0% at 0 U/ml) [%]	intact cTnT remaining ([2]; 100% at 0 U/ml) [%]
intact cTnT: intact mouse cardiac troponin T (TnT4) expressed in E. coli	15.3 ± 1.36	did not result in significant change	13.5 ± 1.38	did not result in significant change						
OO [hydrogen peroxide]					65	approximately 35%				
cTnT ND: NH2-terminal truncated mouse cardiac troponin T lacking amino acids 1-71, expressed in E. coli	8.73 ± 1.15	did not result in significant change	9.73 ± 0.185	did not result in significant change			No significant difference	not significantly changed		
B1									98	1.5
